The values that follow come from patent publication US7125850B2, “Methods of identifying inhibitors of GADD45 polypeptide activity, and inhibitors of such activity” (The United States of America as represented by the …, priority 1999, dated 2006).

One assay relates to RKO cells. As to the kind of experiment: Flow cytometry cell cycle analysis of RKO cells after base-damaging agent. The format is cell-based, human. Conditions: parental RKO cells, 25 μg/ml. How it is done: Using flow cytometry analysis, cell cycle distributions of unsynchronized cell populations were performed (for flow cytometry analysis, cells were harvested with 3.5 mM EDTA-PBS buffer, fixed with 70% ethanol for at least 1 hr at 4° C., treated with 20 μg/ml RNase A for 30 min, stained with 60 μg/ml of propidium iodide (PI) for DNA content, and analyzed for cell cycle status with a FACScan cell sorter (Becton Dickinson). At least 10,000 cells were collected. The cell cycle profiles were calculated using the CellQuest and ModFit Lt software. Experiments were repeated at least twice.) The parental human RKO colon carcinoma cells and three isogenic RKO-derived clones stably expressing antisense GADD45 mRNA (discussed above) were analyzed.
Cells were treated with base-damaging agents: either 6.3 Gy of γ-radiation; 5 J/m^2 of UV; or, 25 μg/ml of the base-damaging alkylating agent MMS. These doses for MMS and UV radiation were selected because they were not toxic to these cells in a short-term growth assay. […] The cell cycle status of the cells was then analyzed and quantitated by flow cytometric analysis profile (as described above). […] IR caused a significant accumulation in G2/M with concomitant reductions in G1 and S in all four cell lines.

The target of the next assay is T1, cyclin B1 (Homo sapiens, UniProt P14635).
T1 construct: endogenous in cells; host or cells: RKO (human colon carcinoma)
T1 sequence (P14635 whole entry): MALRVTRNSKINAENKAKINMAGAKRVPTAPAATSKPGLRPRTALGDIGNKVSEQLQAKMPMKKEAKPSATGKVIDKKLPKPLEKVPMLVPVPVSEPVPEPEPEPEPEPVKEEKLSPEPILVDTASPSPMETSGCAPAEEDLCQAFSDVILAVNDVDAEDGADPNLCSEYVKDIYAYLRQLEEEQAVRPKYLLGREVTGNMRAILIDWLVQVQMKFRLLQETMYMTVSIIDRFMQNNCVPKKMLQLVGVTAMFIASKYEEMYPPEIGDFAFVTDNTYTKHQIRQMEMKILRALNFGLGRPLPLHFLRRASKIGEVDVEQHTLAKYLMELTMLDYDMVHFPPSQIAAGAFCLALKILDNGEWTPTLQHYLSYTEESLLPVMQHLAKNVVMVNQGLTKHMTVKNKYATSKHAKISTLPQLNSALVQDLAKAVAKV
Put plainly: GST pull-down from RKO cell lysate, immunoblot for cyclin B1. Conditions: 100 ng protein, 1 mg RKO cellular protein. The format is binding. Here is the method: To detect binding of cellular Cdc2 to GST-tagged GADD45, 100 ng of GST or GST-GADD45 fusion protein were incubated with one mg of RKO cellular protein for 4 hr at […]. Complexes were then washed three times with lysis buffer and loaded onto a 12% SDS-PAGE gel. Following electrophoresis, the proteins were electrophoretically transferred to Immobin membranes (Millipore, Bedford, Mass.). The membranes were blocked for 30 min in 5% nonfat milk and then incubated with anti-Cdc2 (Santa Cruz Biotechnology, Santa Cruz, Calif.) and anti-cyclin B1 (Pharmingen, San Diego, Calif.) monoclonal mouse antibodies. Antibody was detected by a chemiluminescence system in accordance with the instructions of the manufacturer (Amersham, Buckinghamshire, England)
(§1) GST-GADD45 fusion protein or GST alone, which were linked to Sepharose beads, were incubated with cellular lysates, isolated, and analyzed by immunoblotting, as described above.
A general note: In western blotting, separated proteins are transferred to a membrane and probed.

The target in a further assay is T2, Cdk2 (Homo sapiens, UniProt P24941).
T2 construct: GST-GADD45 fusion protein were incubated with one mg of RKO cellular protein; endogenous in cells; host or cells: RKO (human colon carcinoma)
As to the kind of experiment: GST pull-down from RKO cell lysate, immunoblot for Cdk2. The format is binding.

A further assay deals with T3, cellular Cdc2 (Homo sapiens, UniProt P06493).
T3 construct: GST-GADD45 fusion protein were incubated with one mg of RKO cellular protein; endogenous in cells; host or cells: RKO (human colon carcinoma)
T3 sequence (P06493 whole entry, the tested form may be a part): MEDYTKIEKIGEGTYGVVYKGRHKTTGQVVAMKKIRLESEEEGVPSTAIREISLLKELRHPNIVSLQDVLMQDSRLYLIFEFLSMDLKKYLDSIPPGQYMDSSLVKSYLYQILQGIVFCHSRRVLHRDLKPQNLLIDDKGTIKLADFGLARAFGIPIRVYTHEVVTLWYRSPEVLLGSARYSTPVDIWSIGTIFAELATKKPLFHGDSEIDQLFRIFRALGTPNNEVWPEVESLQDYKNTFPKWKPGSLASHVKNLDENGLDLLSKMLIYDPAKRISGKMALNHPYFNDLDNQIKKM
As to the kind of experiment: GST pull-down from RKO cell lysate, immunoblot for Cdc2. Conditions: 100 ng protein, 1 mg RKO cellular protein. The assay is classed as binding.
Text: For these experiments, a recombinant glutathione-S-transferase (GST)/GADD45 fusion protein was constructed. The GADD45 insert was PCR amplified from pHul45B2 using the following primers: (SEQ ID NO:3) 5′[…] 3′ and (SEQ ID NO:4) 5′[…] 3′. Products were cloned into a pcrII vector using the TA cloning kit (Invitrogen, San Diego, Calif.). A representative clone was confirmed by sequencing. The selected insert was removed by XhoI and NotI digestion, gel purified using the Wizard DNA Purification Kit (Promega, Madison, Wis.), and ligated into the XhoI/ NotI digested pGEX4T vector (Pharmacia, Piscataway, N.J.). GST-GADD45 fusion protein induction was prepared from freshly transformed BL21 bacterial cells (Novagen). 150 ml of overnight culture was diluted into 1L of LB with ampicillin and grown at 37° C. to late growth phase (OD600 was approximately 0.8). […]
To detect binding of cellular Cdc2 to GST-tagged GADD45, 100 ng of GST or GST-GADD45 fusion protein were incubated with one mg of RKO cellular protein for 4 hr at […]. […] Antibody was detected by a chemiluminescence system in accordance with the instructions of the manufacturer (Amersham, Buckinghamshire, England)
as §1

The next assay deals with Cdc2 (Homo sapiens, UniProt P06493). Put plainly: Co-immunoprecipitation of Myc-tagged GADD45 with Cdc2 antibody in transfected RKO cells. The format is cell-based. Also noted: endogenous in cells; host or cells: RKO (human colon carcinoma). An excerpt: In order to determine if GADD45 associates with Cdc2 in vivo, RKO cells were transfected with Myc-epitope-tagged expression vectors. To construct the Myc-tag-GADD45 expression vector, internal GADD45 primers were designed to contain an in-frame 5′ NdeI site and were used to amplify the desired regions from a human GADD45 cDNA construct. PCR products were cloned into the pcrII vector using the TA Kit (Invitrogen, Carlsbad, Calif.) and sequenced prior to subcloning into XhoI/XbaI cut pCS2MT. This allowed expression of the GADD45 constructs tagged with 6 copies of the Myc epitope recognized by the monoclonal 9E10 antibody at the amino-terminus (Rupp (1994) Genes Dev. 8:1311–1323; Turner (1994) Genes Dev. 8:1434–1447).
Cdc2, sequence (P06493 whole entry): as the sequence (P06493 whole entry, the tested form may be a part) above
For mammalian cell transfection, 10^6 RKO cells were seeded onto 100 mm plates the day before transfection. […]
Lysates from cells expressing Myc-tag-GADD45 fusion protein or unfused Myc-tag were immunoprecipitated with antibodies to c-myc and Cdc2 (both from Santa Cruz Biotech.). […] Following immunoblot analysis, the Myc-tagged GADD45 protein was detected in both the cell lysate and after immunoprecipitation with anti-Myc antibody. […] After immunoprecipitation with Cdc2 antibody, Myc-tagged GADD45 was also detected. No GADD45 was detected with (i.e., was co-immunoprecipitated by) the control antibodies. […]

Turning to `COS(C)(=O)=O` [MMS, methyl methanesulfonate], in the assay on RKO cells, the cell cycle accumulation result is “accumulated in S and G2/M”.

B1: GST-GADD45: recombinant glutathione-S-transferase (GST)/GADD45 fusion protein on Sepharose beads (protein)
chain: TLEEFSAGEQKTERMDKVGDALEEVLSKALSQRTITVGVYEAAKLLNVDPDNVVLCLLAADEDDDRDVALQIHFTLIQAFCCENDINILRVSNPGRLAELLLLETDAGPAASEGAEQPPDLHCVLVTNPHSSQWKDPALSQLICFCRESRYMDQWVPVINLPER
modifications: left off: a dimerising Fc or GST
notes: recombinant glutathione-S-transferase (GST)/GADD45 fusion protein on Sepharose beads
In the case of B1, in the assay with cyclin B1, the “association with cyclin B1” value is reported as “did not associate”. Besides, the “association with Cdk2” value with Cdk2 was “No association”. Besides, in the assay with cellular Cdc2, the “association with cellular Cdc2” value is listed as “found to associate”.

B2: Myc-tagged GADD45: GADD45 tagged with 6 copies of the Myc epitope, expressed in RKO cells (protein)
chain: MTLEEFSAGEQKTERMDKVGDALEEVLSKALSQRTITVGVYEAAKLLNVDPDNVVLCLLAADEDDDRDVALQIHFTLIQAFCCENDINILRVSNPGRLAELLLLETDAGPAASEGAEQPPDLHCVLVTNPHSSQWKDPALSQLICFCRESRYMDQWVPVINLPER
modifications: left off: small tags and cut ends
As to B2, the “detection after immunoprecipitation with Cdc2 antibody” value in the assay with Cdc2 is on record as “also detected”.
